A short description of the series: amyloid nucleation score (Sup35N fusion, yeast selection) (log enrichment); library NNK1; higher = more nucleation; inactive = no reads after selection. A digest of the protocol: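 Random libraries were run with three technical output replicates. In each, psi-negative yeast expressing Sup35N fused to peptides of 20 random codons were induced 24 hours with 100 μM copper sulfate and grown 7 days at 30°C on medium lacking adenine and uracil, and input and output plasmid inserts were Illumina-sequenced. The nucleation score is the DiMSum log enrichment of output over input reads, centred on the mode score of non-aggregating sequences, and sequences under 100 input reads were excluded.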

± gives the uncertainty stated by the source.

103 substances from the supplement of paper PMC12042874 can be followed below.

RLRQTGVRLRSQEMFVGEVY showed an amyloid nucleation score of -0.378 ± 0.45.
Take VYKTRVYVDCYEILDGSKEM: the amyloid nucleation score was 0.491 ± 0.45.
The value for GPSRNGWFNATLGHTLLSNT was 0.638 ± 0.42; that for FFNYD was -0.628 ± 0.8; that for FIQGLCMVFDVSYLRLS was 2.8 ± 0.15.
The value for SCLNVNVMLYSWESVGPKSG was “inactive”; that for SNFCDTCLKLRGNTCMASFT was -0.259 ± 0.42.
Regarding KYKDFLGSISDLDWII, the amyloid nucleation score was -0.464 ± 1.4.
The value for AHFKYN was 0.271 ± 1.4; that for PTPILFCYQRCLGVYYMDET was 0.198 ± 0.4; that for VFNTSRLFRSLYPK was 0.573 ± 0.82.
Turning to WNHFERMEKPA, the amyloid nucleation score was -0.639 ± 1.2.
Substance DCFLCLKVLGMSAVLREWYL showed an amyloid nucleation score of -1.17 ± 0.94.
For the substance FIGVLIRSVCQSGARIV, the amyloid nucleation score stood at 0.514 ± 0.17.
The value for CFTKIFDDYSWCFGAGANQS was 0.348 ± 0.28.
The value for VNMSKHYRRGWGDDVATGVR was 0.693 ± 0.49; that for YYIVVCR was 0.932 ± 0.97; that for ISTRQMFVYLRVHCFIDAVE was 0.043 ± 0.48.
The value for LESQNHTFLRFIPKAALRIL was 0.067 ± 0.47; that for LSIMVCVICSYMVKMVVTGI was “inactive”; that for YTWMSIEIY was 1.71 ± 0.4.
IQYNSKIRVFALDYPIEFPC had an amyloid nucleation score of 0.083 ± 0.61.
The value for MLSKIFAHYSWSQAVTRAWG was 1.75 ± 0.58; that for YNCYREGAWSITIRWIANRV was 0.124 ± 0.34; that for VFMSIRMWAFDLLYVSCGLA was -0.808 ± 0.42.
In turn, RLYKFTGF returned an amyloid nucleation score of 1.09 ± 0.37.
The value for NVGLGRWSFCGSMSVK was -0.688 ± 0.58; that for GYNFKRVSNFSVYGLVSYSN was 0.046 ± 1.6.
The value for SDVVFYFGDAGFRMLSEDSR was -0.326 ± 0.55; that for HCMGRACPHS was 5.11 ± 0.11; that for LQNIFLKACDWLGCWDVDVM was -0.149 ± 0.93.
The value for PWISFTKYKTLSYETHPGWF was 0.544 ± 0.79; that for VFQLIVTTFLSCVGFHKVMW was -0.658 ± 0.6.
For TGNGRWVDFFRYRYGLKSRS, the amyloid nucleation score result was “inactive”.
VRMGQDRHIISTKLTVSREL: the amyloid nucleation score was -1.22 ± 2.7.
For SHDSKAAHPWSLRNYVATRR, the amyloid nucleation score stood at 0.182 ± 0.42.
The substance VSNFIGVFVAVSWRYDDLCF yielded an amyloid nucleation score of 0.324 ± 1.2.
The substance EDCIWYVVGH registered an amyloid nucleation score of -2.18 ± 2.4.
The value for EFGRGSNRVEFIMGASLALT was 1.09 ± 0.17; that for FMPFASKCGCPN was 0.595 ± 0.41.
The value for QSDMGIIP was 0.153 ± 0.47; that for VRSLARNG was 0.947 ± 0.7.
The value for ELDNCARLGADCKGLNAGRS was “inactive”; that for SDSIVNKKIVRWYRVFRIGC was 1.19 ± 0.51.
IADGTLTVSL displayed an amyloid nucleation score of 0.609 ± 0.32.
For the substance TPAASIRLTRLPEGLIFI, the amyloid nucleation score was determined as 0.47 ± 0.95.
The value for STNLLDFVGKSYVNWKKFRT was 0.104 ± 0.42; that for YASTPWYYMCWFIWAYCFSS was “inactive”; that for KMIPMTYASKVLKCRLFEVK was 1.14 ± 0.76.
The value for MYIKRTGQTGWAVGGSRTPR was 1.11 ± 0.65; that for TLCYYLVWRR was 0.076 ± 0.29; that for YLLCFCR was 0.354 ± 0.27.
LHWWRFFVEVTLPCLGFLLS returned an amyloid nucleation score of -0.308 ± 0.76.
The value for GAGRNSWRCCNLLFSEDMIG was 2.79 ± 0.088.
Substance SSTSSRCHTSANLVRLVNGR came in with an amyloid nucleation score of 0.714 ± 0.33.
The value for FRDMYCARNIACSFLLVVAC was 1.1 ± 0.19.
TWDSPVPG gave an amyloid nucleation score of 0.208 ± 0.29.
The value for QYTAHMLCLALLYRFEWNEN was 2.24 ± 0.27; that for SKLKAYICLCRMEIVLIPRF was -0.978 ± 1.7; that for MEKLGAPYRFREPGMFVRFF was -1.1 ± 0.62.
The value for QFSYTRIEVVSDVHLVNVVN was 0.373 ± 0.3; that for CFSKLEISFDESFR was -0.154 ± 0.28; that for LGYAYSEPPWRLMVNWSPSA was 1.66 ± 0.16.
RPFSDLSWTLDRVWHRPCWY: the amyloid nucleation score turned out to be 1.04 ± 0.6.
The value for MEVKISVRFQFVLI was -0.355 ± 0.6.
Substance VGNVRPVFDTALTTWRRCCF gave an amyloid nucleation score of 0.223 ± 0.49.
Substance RRHLGRCTRSKLFNPLR showed an amyloid nucleation score of 0.101 ± 0.54.
The value for WYVFLYFGCEKAMALSTNMT was “inactive”; that for SSRNDLDVQYLTVDQRPSMP was 1.66 ± 0.56; that for SYDSRNASLVIIISWVMQPL was 0.992 ± 0.16.
The value for FACTTSFSFMRWLRN was 0.903 ± 0.46; that for VLNFEGMSRAVFLRLISIQQ was -0.837 ± 0.9; that for TNMRTWFSGSFTILKCTDFQ was 0.744 ± 0.74.
The value for VSYLEGVRWLCIIYTGNRSW was “inactive”; that for GSSFI was 0.127 ± 0.57; that for GERTCSYIYGLFTIFYTGLR was -0.048 ± 1.3.
Take VHSCIYVSKTSLELARYQML: the amyloid nucleation score result was “inactive”.
The value for MVGRVARRVTMSVCSAVSGV was -0.237 ± 0.45.
YSNRWNYWVYVFGQVF showed an amyloid nucleation score of -0.437 ± 0.42.
The value for NTADTFMNLAILSC was 0.148 ± 0.35; that for KIMCELCNSVRNALWRTLRG was -0.01 ± 0.71.
The value for FYRNTGFMW was -1.42 ± 2.7; that for VMAGHFCYWCRCRVARQLSW was -0.69 ± 0.77.
As to RVVVQNI, the amyloid nucleation score was 1.18 ± 0.97.
The value for VSALAVRARWAINTLARDRR was 0.9 ± 0.66.
The value for VFVSIMWQY was 1.82 ± 0.51; that for FDGCNTKGNMSFAWSRPLGM was 0.246 ± 0.97; that for NFNFFRRCLGSPYNRPEWID was -0.066 ± 0.42.
The value for VVLQTTPSAYSIMVHLWYYS was 0.472 ± 0.46.
Regarding FKIVKSCSMFST, the amyloid nucleation score was determined as 0.761 ± 0.24.
ITYKSFYHIQCFSGTSCKRF showed an amyloid nucleation score of 3.1 ± 0.11.
Consider TRLKFGGSKHESSQT, for which the amyloid nucleation score worked out at 1.18 ± 0.43.
As for CLEDFLDNLFSSGYFKFQLV, the amyloid nucleation score result is “inactive”.
FLNCVSLVNLLRLFRVCLMP came in with an amyloid nucleation score of -0.765 ± 1.5.
The value for FIWECGNIISVCMRIGYMKA was 1.23 ± 0.41.
The value for LGIAGER was 0.294 ± 0.33.
SAFFYDSFYRMRLSLFIGYG yielded an amyloid nucleation score of 0.63 ± 0.55.
LDWSMLRTELVIGILRSGRE returned an amyloid nucleation score of 0.248 ± 0.52.
The value for AIMLGVGFKDGSIVYKLG was -0.354 ± 0.25; that for KRYDLRLKMMTTPI was 1.29 ± 0.41; that for IRNIRRI was -0.262 ± 0.28.
The value for SCFFKKMDMDT was 0.436 ± 0.69.
Take PGCESARRLKLRVSLKLRGK: the amyloid nucleation score is -0.731 ± 1.1.
